The labels stand for the following.
B1: unnamed (parent)
chain 1: SECGKFMWKCKNSNDCCKDLVCSSRWKWCVLASPF
chain 2: RGLSDLGGRVRNIGDVMEHPLVELGVSYAALLSVIVVVVEYTMQLSGEYLVRLYLVDLILVIILWADYAYRAYKSGDPAGYVKKTLYEIPALVPAGLLALIEGHLAGLGLFRLVRLLRFLRILLIISRGSKFLSAIADAADK

The variants in the experiment derive from B1. As to the kind of experiment: pull-down. Further details: reference not given here. Conditions: with partner chain of the complex shown; His6-tagged VSDK micelles immobilized on nickel-NTA beads; read off a plot.
Regarding chain 2 RGLSDLGGRVRNIGDVMEHPLVELGVSYAALLSVIVVVVEAAMQLSGEYLVRLYLVDLILVIILWADYAYRAYKSGDPAGYVKKTLYEIPALVPAGLLALIEGHLAGLGLFRLVRLLRFLRILLIISRGSKFLSAIADAADK [chain 2 Y41A T42A], the screen value came to 19%.
The figure for chain 2 RGLSDLGGRVRNIGDVMEHPLVELGVSYAALLSVIVVVVEAAMALSGEYLVRLYLVDLILVIILWADYAYRAYKSGDPAGYVKKTLYEIPALVPAGLLALIEGHLAGLGLFRLVRLLRFLRILLIISRGSKFLSAIADAADK [chain 2 Y41A T42A Q44A] is 51%; for chain 2 RGLSDLGGRVRNIGDVMEHPLVELGVSYAALLSVIVVVVEATMQLSGEYLVRLYLVDLILVIILWADYAYRAYKSGDPAGYVKKTLYEIPALVPAGLLALIEGHLAGLGLFRLVRLLRFLRILLIISRGSKFLSAIADAADK [chain 2 Y41A] it is 8%; for chain 2 RGLSDLGGRVRNIGDVMEHPLVELGVSYAALLSVIVVVVEYTMQLSGEYLVRLYLVDLILVIILAADYAYRAYKSGDPAGYVKKTLYEIPALVPAGLLALIEGHLAGLGLFRLVRLLRFLRILLIISRGSKFLSAIADAADK [chain 2 W65A] it is -7%.
As for chain 2 RGLSDLGGRVRNIGDVMEHPLVELGVSYAALLSVIVVVVEYTMQLSGEYLVRLYLVDLILVIILWADYAYRAYKSGDPAGYVKKTLYEIPALVPAGLLALIEGHLAGLGLFRLVALLRFLRILLIISRGSKFLSAIADAADK [chain 2 R115A], the screen value turned out to be 7%.
In the case of chain 2 RGLSDLGGRVRNIGDVMEHPLVELGVSYAALLSVIVVVVEYAMQLSGEYLVRLYLVDLILVIILWADYAYRAYKSGDPAGYVKKTLYEIPALVPAGLLALIEGHLAGLGLFRLVRLLRFLRILLIISRGSKFLSAIADAADK [chain 2 T42A] it was 6%.
With chain 2 RGLSDLGGRVRNIGDVMEHPLVELGVSYAALLSVIVVVVEYTMQLAGEYLVRLYLVDLILVIILWADYAYRAYKSGDPAGYVKKTLYEIPALVPAGLLALIEGHLAGLGLFRLVRLLRFLRILLIISRGSKFLSAIADAADK [chain 2 S46A], the screen value came out at 11%.

The values are drawn from paper PMC5039624 (Scientific Reports, 2016).
